# Literature values in PMC6482830.
# Target: eIF4E (Homo sapiens) (UniProt P06730)
# Test: ITC
# Chain of UniProt P06730 (P06730 2-217): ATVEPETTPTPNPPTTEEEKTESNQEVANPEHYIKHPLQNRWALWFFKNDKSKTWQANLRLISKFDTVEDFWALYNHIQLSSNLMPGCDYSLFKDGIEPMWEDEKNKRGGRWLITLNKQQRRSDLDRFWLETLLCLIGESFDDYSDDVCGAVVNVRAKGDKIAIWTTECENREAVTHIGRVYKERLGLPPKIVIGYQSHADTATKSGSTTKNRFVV
substance,measurement,value
4E-BP1 peptide (from UniProt Q13541),Kd,0.05 µM
